Experimental data as given in US20210139610A1, “COMPOSITIONS AND METHODS FOR MEDIATING EPS” (priority 2018, published 2021).
Entries after “also recorded” stand apart in the source; their conditions may differ.

Tests used:
[1] = test system: Biofilms formed for 24 h by the indicated bacteria (Kp=K. pneumoniae); assay: B-DNA / Z-DNA abundance after DNase in 24 h biofilms of the indicated bacteria (ImageJ fluorescence ratio); format: cell-based; settings: Pulmozyme 40 U/ml for 16 h
Description: FIGS. 48A-48B: Z-DNA in biofilms forms a nuclease-resistant scaffold. (FIG. 48A) Biofilms formed for 24 h by the indicated bacteria (Kp=K. pneumoniae) were incubated with DNase (Pulmozyme®; 40 U/ml) for an additional 16 h. Biofilms were then probed with anti-B-DNA (dark gray) and anti-Z-DNA (white) antibodies and counterstained with the bacterial cell membrane stain FM4-64™ (not shown). (FIG. 48B) Changes in abundance of B-DNA or Z-DNA were quantified using ImageJ by calculation of the ratio of fluorescence intensity of B-DNA or Z-DNA after DNase addition divided by the fluorescence intensity in the absence of DNase (Control). Fluorescence intensity was normalized to the fluorescence signal of FM4-64™-stained cells. Bars represent the SEM. Statistical significance compared to Control (no DNase, dotted line) was assessed by paired t-tests, *P<0.05; ****P<0.0001.

[2] = test system: genomic DNA; assay: Spermidine sensitivity of nucleases on genomic DNA; format: biochemical; settings: Spermidine titrated from 10 μM-10 mM
[3] = test system: Z-DNA and B-DNA in the NTHI biofilm extracellular matrix; assay: Immunofluorescence CLSM for Z-DNA / B-DNA in NTHI biofilms; format: cell-based, Non-typeable Haemophilus influenzae; settings: DNase (Pulmozyme; 5 units) at 24 h, read at 40 h
Description: FIG. 31: DNase degrades B-DNA, but not Z-DNA, within the biofilm extracellular matrix. DNase (Pulmozyme; 5 units) was added at 24 h after biofilm seeding to in vitro pre-formed NTHI biofilms.
FIG. 37: HMGB1 destabilizes Z-DNA structures in the biofilm extracellular matrix. Non-typeable Haemophilus influenzae biofilms were grown in supplemented BHI media in 8 well chambered coverglass slides at 37° C. and 5% CO2. After 24 h, biofilms were treated as indicated above. After 40 h, biofilms were washed, probed with primary antibodies directed against Z-DNA (light gray dots), a fluorescent secondary antibody, stained with DAPI (gray regions), and visualized via fluorescence microscopy.
FIGS. 50A-50B: Equilibrium shift of B-DNA to Z-DNA conversion alters biofilm formation. NTHI biofilms formed for 24 h were incubated with cerium chloride (CeCl3) or chloroquine for an additional 16 h and were probed with naive or anti-Z-DNA (white) by immunofluorescence CLSM.
FIGS. 51A-51B: Equilibrium shift of B-DNA to Z-DNA conversion alters biofilm formation. NTHI biofilms formed for 24 h were incubated with cerium chloride (CeCl3) (FIG. 51A) or chloroquine (FIG. 51B) for an additional 16 h. Z-DNA was measured by IF and CLSM using anti-Z-DNA and cells were stained with the membrane stain FM4-64. Bars represent the SEM. Statistical significance compared to control was assessed by paired t-tests, *P<0.05, **P<0.01.

[4] = test system: preformed NTHI biofilms; assay: Disruption of pre-formed NTHI biofilms (treatment after initial growth; LIVE/DEAD, CLSM, COMSTAT); format: cell-based, Non-typeable Haemophilus influenzae; settings: DNase (Pulmozyme) added at 24 h
Description: (FIG. 18A) Biofilm growth was initiated then maintained for 24 hrs then treated for 16 hrs with 0 (SBHI Control), 0.1%, 1%, and 5% (w/v) of Phoshocellulose (P11). (FIG. 18B) Biofilm growth was initiated then maintained for 40 hrs in the presence of 0 (sBHI Control), 0.1%, 1%, and 5% (w/v) of (P11). Biofilms were washed with saline and stained with LIVE/DEAD® stain. Images were analyzed by COMSTAT to calculate average thickness and biomass. All images were captured with a 63× objective.
21:65-7. Pulmozyme® was added either at seeding (biofilm prevention) or to pre-formed biofilms (biofilm disruption) (FIG. 6). The resultant biofilms were stained with LIVE/DEAD® and evaluated using CLSM and COMSTAT analysis.
To determine anti-biofilm activity of cation exchange resins on preformed biofilms (i.e. ability to disrupt an extant biofilm), NTHI growth was initiated and maintained for 24 hrs, then treated for 16 hrs with 0 (sBHI Control), 0.1, 1, or 5% (w/v) of P11 phosphocellulose (FIG. 18A). To determine the anti-biofilm activity of cation exchange resins to prevent biofilm formation, NTHI growth was initiated and maintained in the presence of 0 (sBHI Control), 0.1, 1, and 5% w/v of P11 phosphocellulose (FIG. 18B) or 5% (w/v) heparin sepharose (FIG. 19). Biofilms were washed with saline and stained with LIVE/DEAD®, visualized with confocal scanning microscopy (CSLM) and analyzed by COMSTAT to determine average thickness and biomass.

B1: DNase: Pulmozyme, a recombinant human DNase used for management of cystic fibrosis patients (protein, UniProt P24855 23-282, looked up)
Deoxyribonuclease-1: LKIAAFNIQTFGETKMSNATLVSYIVQILSRYDIALVQEVRDSHLTAVGKLLDNLNQDAPDTYHYVVSEPLGRNSYKERYLFVYRPDQVSAVDSYYYDDGCEPCGNDTFNREPAIVRFFSRFTEVREFAIVPLHAAPGDAVAEIDALYDVYLDVQEKWGLEDVMLMGDFNAGCSYVRPSQWSSIRLWTSPTFQWLIPDSADTTATPTHCAYDRIVVAGMLLRGAVVPDSALPFNFQAAYGLSDQLAQAISDHYPVEVMLK
- B-DNA abundance after DNase [1]: B-DNA is degraded
- Z-DNA abundance after DNase [1]: Z-DNA is resistant
- Spd inhibition: spermidine concentration where nuclease was reduced to <10% activity on genomic DNA [2]: 300 µM
- B-DNA form eDNA in NTHI biofilm matrix [3]: degrades B-DNA form eDNA structures
- Z-DNA form eDNA in NTHI biofilm matrix [3]: reveals extensive Z-DNA form eDNA
- NTHI mature biofilm disruption [4]: unable to disrupt mature biofilms; also recorded: not disrupt extant biofilms
